Laboratory results published in patent US8822407B2, “Preparation of conjugates comprising adenine derivatives and allergenic proteins and their use for specific immunotherapy of allengenic diseases” (Universita' Degli Studi di Firenze, priority 2010, dated 2014).

B1: nDer p2: purified natural allergen Der p2, major allergen from the house dust mite Dermatophagoides pteronyssinus (protein, UniProt P49278 18-146, looked up)
Mite group 2 allergen Der p 2: DQVDVKDCANHEIKKVLVPGCHGSEPCIIHRGKPFQLEAVFEANQNTKTAKIEIKASIDGLEVDVPGIDPNACHYMKCPLVKGQQYDIKYTWNVPKIAPKSENVVVTVKVMGDDGVLACAIATHAKIRD
modifications: natural purified
notes: purified natural allergen Der p2, major allergen from the house dust mite Dermatophagoides pteronyssinus

Assays:
Format in all cases: cell-based, human
purified B cells = assay: B cell activation (tritiated thymidine incorporation); conditions: for Stimulation index (mean ± SE): B cell proliferation
Protocol: Circulating mononuclear cells (MNC) are isolated by Ficoll-Hypaque density gradient from buffy coats of healthy donors (Servizio Immunotrasfusionale e terapie cellulari, Azienda Ospedaliero Universitaria Pediatrica A. Meyer, Firenze). 200×10^6 MNC are then separated using the commercial CD19 isolation kit (Miltenyi) by the addition of 400 μl iron microbead-bound anti-CD19 monoclonal antibody followed by magnetic separation on LS column. 20×10^6 B cells are isolated by positive selection and are extensively washed by the use of calcium- and magnesium-free PBS and cultured in triplicates at the concentration of 1×10^6/ml/well in complete medium plus 10% foetal calf serum in 96-U plates. […] Plates are incubated in humidified atmosphere at 37° C. for 72 hrs and at the end 0.5 μCi tritiated thymidine is added to each well for further 16 hrs. The incorporated radioactivity is measured as already described in step (f) of Example 4.

[1] = test system: NF-κB p50 subunit in purified CD14+ cells; assay: NF-κB activation: nuclear p50 in purified CD14+ cells; conditions: 2 hrs, allergens and conjugates 10 μg/ml, R-848 2 μg/ml
Protocol: The tubes are then incubated for 2 hrs in 5% CO2 humidified atmosphere at 37° C. and then washed with 10 ml PBS, centrifuged at 1500 rpm repeating the treatment thrice and the cellular pellet finally dried by the use of a micropipette and stored at −80° C. up to the assay. […] Two different protein amounts (0.5 and 2 μg) were incubated in 96w plates coated by the immobilized oligonucleotide containing the activated NF-κB consensus site (5′-[…]-3′), followed by the incubation with an antibody recognizing an epitope of the NF-κB p50 subunit. An HRP-conjugated secondary antibody was added to single wells and the colorimetric read-out was quantified by spectrophotometry. Values are reported as Optical Density. […] For the specificity of the assay, a wild-type consensus oligonucleotide was used as a competitor for NF-κB binding.

[2] = test system: allergen-specific T cell lines; assay: Functional phenotype of allergen-specific T cell lines; conditions: SA-26E 0.085 μg/ml, alone or mixed with nDer p2 10 μg/ml
Protocol: Mononuclear cells from 10 atopic donors with sensitization towards Dermatophagoides pteronyssinus have been isolated by density gradient and 1×10^6 cells cultured in 2 ml complete medium plus 5% autologous serum in the presence of DP or nDer p2 allergens or their respective conjugates (DP-conj or nDer p2-conj) (all at 10 μg/ml) in 24 flat-bottomed plates (Costar). […] After 6 d incubation and addition of rIL-2 (Proleukin) (25 UI/ml), T cell blasts are further expanded by the addition of medium, fresh 5% autologous serum and 25 UI/ml rIL-2 every three days. After 15 d culture, T cell blasts from single cultures are collected, washed with sterile PBS, counted and used to assess allergen specificity, phenotype and function.
To assess allergen-specificity, 1×10^5 T cell blasts are cultured in 96 U-bottomed plates in 0.2 ml final volume in medium plus 5% autologous serum, 1×10^5 autologous irradiated (9000 R) mononuclear cells as APCs, DP or nDer p2 (10 μg/ml) and, after 3 d incubation, tritiated thymidine (3HTdR) (Amersham) is added. After further 16 hr incubation, single cultures are transferred on paper filters through the use of an Harvester apparatus (Tomtec) and radioactivity measured in a β-counter. […]

[3] = test system: allergen-specific T cell clones; assay: Functional phenotype of allergen-specific T cell clones; conditions: for Clonal Efficiency (%): T cell lines derived in the presence of the stimulus
From the text: For the functional analysis of T cell clones specific for nDer p2 and nDer p2-con j, T cell lines are initially derived from MNC of two atopic donors (G. E. and M. A.) affected by bronchial asthma and allergic rhinitis and sensitized to Dermatophagoides pteronyssinus, in the presence of nDer p2- or its respective conjugate nDer p2-conj. […] 28 allergen-specific T cell clones are obtained from T cell lines specific for nDer p2 from donor two and 37 from donor one whereas 28 clones are obtained from T cell lines derived in the presence of nDer p2-conj from both donors.
The allergen-specific clones obtained in the different experimental conditions have been then assessed for their ability to produce IL-4 ([…]) and IFN-gamma (pg/ml) in the culture supernatants after polyclonal stimulation with PMA and anti-CD3 monoclonal antibody.

Row | Molecule | proliferation of purified B lymphocytes (in words) (purified B cells; thymidine incorporation) | p50 nuclear expression (NF-κB activation) [1] | modification of the cellular phenotype of allergen-specific T cells (TH2 towards TH1/TH0) [2] | Clonal Efficiency (%) ([3]; Donor one) | Clonal Efficiency (%) ([3]; Donor two) | clones producing IL-4 alone ([3]; donor one, PMA and anti-CD3) [%] | clones producing IL-4 together with IFN-gamma (TH0 phenotype) ([3]; donor one, PMA and anti-CD3) [%] | clones able to produce IL-4 alone or together with IFN-gamma ([3]; donor two, PMA and anti-CD3) [%] | Stimulation index (mean ± SE) (purified B cells; concentration 0.5 μg/ml) | Stimulation index (mean ± SE) (purified B cells; concentration 2.5 μg/ml) | Stimulation index (mean ± SE) (purified B cells; concentration 10 μg/ml)
1 | CCOCc1nc2c(N)nc3ccccc3c2n1CC(C)(C)O [Conj R-848, reference compound] | high levels of incorporation of radioactive thymidine |  |  |  |  |  |  |  |  |  | 
2 | Nc1nc(SCCCC(=O)ON2C(=O)CCC2=O)nc2c1nc(O)n2Cc1ccccc1 [SA-26E, 4-(6-Amino-9-benzyl-8-hydroxy-9H-purin-2-ylsulfanyl)-butyric acid 2,5-dioxo-pyrrolidin-1-yl ester] |  | completely inactive | inactive |  |  |  |  |  |  |  | 
3 | B1 |  | inactive |  | 30 | 24 | 56.7 | 29.7 | 75 | 1.6 ± 0.4 | 1.7 ± 0.2 | 1.7 ± 0.1
